Data set [1] deals with T1, PSP (oligopeptidase B from Serratia proteomaculans) (Serratia proteamaculans, UniProt B3VI58).
T1 construct: gene opdB; recombinant from E. coli BL21(DE3); 685 residues with tag; 76 kDa; monomer
Kind of data set: initial rate of BAPNA hydrolysis. The format is biochemical. To be noted: read-out: % inhibition at 5 mM.

The target in data set [2] is T1, PSP (oligopeptidase B from Serratia proteomaculans). Kind of data set: differential scanning calorimetry. Conditions: 2 mM spermine; 25 mM Na-phosphate, pH 7.8; 2 mg/mL protein. Type of data set: binding. On the technique in general: Differential scanning calorimetry records heat flow against a reference as temperature is scanned.
For data set [3], the system named is N=C(N)NCCCC(NC(=O)c1ccccc1)C(=O)Nc1ccc([N+](=O)[O-])cc1. Nature of the data set: purified protein. The format is biochemical, Serratia proteamaculans. To be noted: 0.1 M Tris-HCl, pH 8.0, 2% DMSO, 25 °C.
Data set [4] concerns N=C(N)NCCC[C@H](NC(=O)OCc1ccccc1)C(=O)N[C@@H](CCCNC(=N)N)C(=O)Nc1ccc([N+](=O)[O-])cc1. Kind of data set: purified protein. Type of data set: biochemical, Serratia proteamaculans. Conditions: 0.1 M Tris-HCl, pH 8.0, 2% DMSO, 25 °C.
In data set [5] the test system is N=C(N)NCCC[C@H](NC(=O)[C@H](CCCCN)NC(=O)OCc1ccccc1)C(=O)Nc1ccc([N+](=O)[O-])cc1. Nature of the data set: purified protein. The format is biochemical, Serratia proteamaculans. To be noted: 0.1 M Tris-HCl, pH 8.0, 2% DMSO, 25 °C.

The inhibition is the share of the control response that was lost under treatment. For orientation: Km means the concentration of substrate that gives half-maximal velocity. The kcat is the maximal rate divided by the concentration of active sites. As usually defined, the kcat/Km is the turnover number divided by the Michaelis constant.

As to `NCCCNCCCCNCCCN` [spermine], the inhibition at 5000 µM in data set [1] is 20%. In addition, the dTmax in data set [2] stood at 1 degree.
On to “PSP (oligopeptidase B from Serratia proteomaculans) (Serratia proteamaculans)”, for which, in data set [3], the Km worked out at 78.1 µM, the kcat was 13.2 s⁻¹ and the kcat/Km was determined as 168000 M⁻¹ s⁻¹. Moreover, in data set [4], the Km is 4.35 µM, the kcat was 36.4 s⁻¹ and the kcat/Km turned out to be 8.35e+06 M⁻¹ s⁻¹. Besides, in data set [5], the Km was 20.8 µM, the kcat is 50.8 s⁻¹ and the kcat/Km was 2.43e+06 M⁻¹ s⁻¹.

For the origin of these results see publication PMC8533160, “First Crystal Structure of Bacterial Oligopeptidase B in an Intermediate State: The Roles of the Hinge Region Modification and Spermine” (Biology, 2021).
